Data reported in article PMC9404468.

How the values were obtained:
[1] = target: thyroid hormone receptor beta (TRb), His-tagged, from pETSUMO-TRb (UniProt P10828); experiment: peptide or protein array
[2] = target: human Hsp90a (heat shock protein 90 alpha), purified full-length (human) (UniProt P07900); experiment: peptide or protein array

Substance: human Hsp90a (heat shock protein 90 alpha), purified full-length (from UniProt P07900 1-732) (natural protein)
- EC50 [1]: 124 nM

Substance: thyroid hormone receptor beta (TRb), His-tagged, from pETSUMO-TRb (from UniProt P10828 1-461)
- EC50 [2]: 1240 nM
